# Measured values: PMC5357909, “Structural and functional studies of a noncanonical Dicer from Entamoeba histolytica” (Scientific Reports, 2017)
# T1: EA256 (EhRNaseIII-AadsRBD chimera) (Entamoeba histolytica / Aquifex aeolicus, UniProt C4LU64 2-256+O67082:145-221, internal_change)
# T1 sequence: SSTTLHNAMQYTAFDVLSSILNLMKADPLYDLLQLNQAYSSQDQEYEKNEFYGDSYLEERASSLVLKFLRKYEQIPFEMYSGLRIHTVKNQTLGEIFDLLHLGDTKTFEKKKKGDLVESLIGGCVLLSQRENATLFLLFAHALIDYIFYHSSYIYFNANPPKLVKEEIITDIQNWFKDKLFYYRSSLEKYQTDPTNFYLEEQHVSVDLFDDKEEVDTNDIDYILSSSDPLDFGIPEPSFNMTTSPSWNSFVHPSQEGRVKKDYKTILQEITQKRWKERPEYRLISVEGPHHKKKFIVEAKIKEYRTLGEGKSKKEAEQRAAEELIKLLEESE
# Key:
# [1] = target: T1, EA256 (EhRNaseIII-AadsRBD chimera); test: EMSA; 5 mM Mg2+; more than 70% bound at 1e-4 M; EMSA (1x): 30 mM Tris-HCl pH 7.5, 30 mM NaCl, 5 mM MgCl2, 1 mM DTT, 0.1 mM EDTA, 5% glycerol; room temperature 10 min then ice 20 min; 6% native PAGE, 0.5x TBE; conditions: protein: recombinant; tags: His-Sumo removed by Ulp1; chain copies: 2; blunt, 25 bp
# [2] = target: T1, EA256 (EhRNaseIII-AadsRBD chimera); test: EMSA; 5 mM Mg2+; completely bound at 1e-4 M; EMSA (1x): 30 mM Tris-HCl pH 7.5, 30 mM NaCl, 5 mM MgCl2, 1 mM DTT, 0.1 mM EDTA, 5% glycerol; room temperature 10 min then ice 20 min; 6% native PAGE, 0.5x TBE; conditions: protein: recombinant, tags: His-Sumo removed by Ulp1, chain copies: 2, blunt
binder,measurement,setting,value
RNA25 (dsRNA) RNA 1: GGGAGAAACGCGGCCUCUUUCUCCC RNA 2: GGGAGAAAGAGGCCGCGUUUCUCCC,apparent K (half saturation),[1],< 100 µM
RNA100 (dsRNA) RNA 1: GGGAGAAACGCGGCCUCUUCUUAUUUAUGGCGACAUGUUGUGCCACAUAUUGAGCCAGUAGCGCGGUGUAUUAUACCAGACCUUAUUGGUAUGGUCUCCC RNA 2: GGGAGACCAUACCAAUAAGGUCUGGUAUAAUACACCGCGCUACUGGCUCAAUAUGUGGCACAACAUGUCGCCAUAAAUAAGAAGAGGCCGCGUUUCUCCC,apparent K (half saturation),[2]; 100 bp,< 100 µM
RNA70 (dsRNA) RNA 1: GGGAGAAACGCGGCCUCUUCUUAUUUAUGGCGACAUGUUGUGCCACAUAUUGAGCCAGUAGCGCUCUCCC RNA 2: GGGAGAGCGCUACUGGCUCAAUAUGUGGCACAACAUGUCGCCAUAAAUAAGAAGAGGCCGCGUUUCUCCC,apparent K (half saturation),[2]; 70 bp,< 100 µM
RNA50 (dsRNA) RNA 1: GGGAGAAACGCGGCCUCUUCUUAUUUAUGGCGACAUGUUGUGCCUCUCCC RNA 2: GGGAGAGGCACAACAUGUCGCCAUAAAUAAGAAGAGGCCGCGUUUCUCCC,apparent K (half saturation),[2]; 50 bp,< 100 µM
